{
  "source": "paper PMC3628515",
  "about": "(The Journal of Cell Biology, 2013)",
  "molecular_target": "T1, FAP100-HA (FAP100/Mia1p with a triple HA tag, in the rescued strain mia1R) (C. reinhardtii, UniProt A8I4E9 1-576)",
  "T1 sequence (looked up)": "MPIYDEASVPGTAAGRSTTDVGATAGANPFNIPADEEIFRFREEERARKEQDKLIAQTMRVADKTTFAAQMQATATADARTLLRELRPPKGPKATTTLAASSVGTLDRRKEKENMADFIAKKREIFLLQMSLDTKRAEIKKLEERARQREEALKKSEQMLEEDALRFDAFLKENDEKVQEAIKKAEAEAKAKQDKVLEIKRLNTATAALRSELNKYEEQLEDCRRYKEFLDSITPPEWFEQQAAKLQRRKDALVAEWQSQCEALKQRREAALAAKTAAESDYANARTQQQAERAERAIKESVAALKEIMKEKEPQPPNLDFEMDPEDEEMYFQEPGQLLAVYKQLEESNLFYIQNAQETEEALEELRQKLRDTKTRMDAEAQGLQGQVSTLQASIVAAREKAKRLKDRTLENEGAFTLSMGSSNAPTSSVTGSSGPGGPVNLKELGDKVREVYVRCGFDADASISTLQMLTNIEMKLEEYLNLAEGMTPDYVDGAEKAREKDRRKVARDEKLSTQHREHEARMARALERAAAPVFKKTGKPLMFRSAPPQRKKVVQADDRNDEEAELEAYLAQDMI",
  "assay": "affinity purification with mass spectrometry",
  "data": [
    {"binder": "FAP73 (Mia2p), endogenous (natural protein, UniProt M1V4Y8 1-308, looked up) MDEEGSATARAKMMPQTLVLDHVSPATRLLEKRRQMFEVQEALEAQKQDFNRKEEVFKRREEALKLKDLELQESLIRFSKFLQENDSKRARAEKKANDEIKARIQKEKEIEQLTEVLEELKSEKERILEVLEKNMRYQHYLESVLEVADEYQEVADLLLRHATLSATNADLKDHQRKCSELAEKVRTELQIYVKQKTDEILNLNNQVAKLKTELEGYEAEAMVQEAKKDSSLQIASQRTLEYGQVVLSADNIFNRCRSKSSIGHPAESNPLHQLDVIGNFVSDLGSIIKQFKQEQAKRASLASRAEIE", "values": [
      {"measurement": "stoichiometry N", "result": "1.83 to 2.89", "unit": "FAP73 per FAP100"}
    ]}
  ]
}
